T1: recombinant human His-tagged serglycin (human, UniProt P10124 28-158)
T1 construct: serglycin core protein, human, the tag stands instead of the signal peptide; no GAG chains; numbers count on: the mature protein (1-131); also called Ht-SG; SG core protein; source: bought: ProSpec (produced in Escherichia coli)
T1 sequence (looked up): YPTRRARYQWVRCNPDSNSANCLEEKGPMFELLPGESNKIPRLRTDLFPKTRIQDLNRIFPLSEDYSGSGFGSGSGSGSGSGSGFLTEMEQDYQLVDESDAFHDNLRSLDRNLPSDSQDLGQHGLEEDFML


How the values were obtained:
Conditions in all cases: both partners purified
[1] = target: T2, recombinant proMMP-9 lacking the HPX domain (human, UniProt P14780 20-515); assay: peptide or protein array; 20-mer walk of the SG core protein on cellulose, two-residue shift; 8.8 ul of 11.2 ug/mL proMMP-9 in 10 mL blocking buffer, 1-4 h, room temperature; antibody against MMP-9
T2 construct: MMP-9 proenzyme, human; stop codon behind the codon for A515; the mature proenzyme starts at 20; also called rpMMP-9ΔHPX; proMMP-9ΔHPX; source: Sf9, baculovirus, purified (gelatin-Sepharose)

[2] = target: T3, proMMP-9 purified from THP-1 cells (human (endogenous in THP-1), UniProt P14780 20-707); assay: as above
T3 construct: matrix metalloprotease-9 proenzyme, human; pre domain cleaved off, the mature proenzyme is 20-707; the preparation holds a small amount of TIMP-1; monomer and reduction-sensitive homomultimer; also called pMMP-9; promatrix metalloprotease-9; source: purified from conditioned medium of PMA-stimulated THP-1 cells (Q-Sepharose pass-through, gelatin-Sepharose)
Target sequence in this assay (P14780 20-707): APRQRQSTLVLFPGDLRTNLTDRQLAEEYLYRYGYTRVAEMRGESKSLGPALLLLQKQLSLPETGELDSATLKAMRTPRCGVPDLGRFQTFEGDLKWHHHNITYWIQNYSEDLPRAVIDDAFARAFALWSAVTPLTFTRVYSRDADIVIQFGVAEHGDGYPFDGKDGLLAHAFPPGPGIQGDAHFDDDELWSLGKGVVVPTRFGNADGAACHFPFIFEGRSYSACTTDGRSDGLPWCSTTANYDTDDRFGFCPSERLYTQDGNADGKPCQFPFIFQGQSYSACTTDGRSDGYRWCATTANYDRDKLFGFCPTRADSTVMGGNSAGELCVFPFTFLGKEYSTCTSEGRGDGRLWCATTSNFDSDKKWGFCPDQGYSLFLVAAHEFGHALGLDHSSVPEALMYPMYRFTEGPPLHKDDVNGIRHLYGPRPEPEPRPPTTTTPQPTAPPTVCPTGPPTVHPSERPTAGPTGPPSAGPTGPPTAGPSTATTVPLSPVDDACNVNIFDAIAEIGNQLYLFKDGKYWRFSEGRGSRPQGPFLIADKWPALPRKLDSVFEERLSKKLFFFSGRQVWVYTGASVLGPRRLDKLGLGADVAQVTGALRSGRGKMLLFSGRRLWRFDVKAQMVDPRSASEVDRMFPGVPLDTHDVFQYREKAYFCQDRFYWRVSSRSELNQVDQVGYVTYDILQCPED

[3] = target: T4, recombinant full-length proMMP-9 (human, UniProt P14780 20-707); assay: as above
T4 construct: matrix metalloprotease-9 proenzyme, human, full-length; pre domain cleaved off, the mature proenzyme is 20-707; also called rpMMP-9; source: Sf9, baculovirus, purified (gelatin-Sepharose)

[4] = target: T1, recombinant human His-tagged serglycin; assay: peptide or protein array; 20-mer walks of the MMP-9 FnII module and HPX domain on cellulose, two-residue shift; 10 uL of 1 ng/uL Ht-SG in 10 mL blocking buffer, 1-4 h, room temperature; antibodies against SG
[5] = target: T3, proMMP-9 purified from THP-1 cells; assay: peptide or protein array; 20-mer walk of the SG core protein on cellulose, two-residue shift; 8.8 ul of 11.2 ug/mL proMMP-9 in 10 mL blocking buffer, 1-4 h, room temperature; antibody against MMP-9; remark: listed apart in the source

T2 sequence (P14780 20-515): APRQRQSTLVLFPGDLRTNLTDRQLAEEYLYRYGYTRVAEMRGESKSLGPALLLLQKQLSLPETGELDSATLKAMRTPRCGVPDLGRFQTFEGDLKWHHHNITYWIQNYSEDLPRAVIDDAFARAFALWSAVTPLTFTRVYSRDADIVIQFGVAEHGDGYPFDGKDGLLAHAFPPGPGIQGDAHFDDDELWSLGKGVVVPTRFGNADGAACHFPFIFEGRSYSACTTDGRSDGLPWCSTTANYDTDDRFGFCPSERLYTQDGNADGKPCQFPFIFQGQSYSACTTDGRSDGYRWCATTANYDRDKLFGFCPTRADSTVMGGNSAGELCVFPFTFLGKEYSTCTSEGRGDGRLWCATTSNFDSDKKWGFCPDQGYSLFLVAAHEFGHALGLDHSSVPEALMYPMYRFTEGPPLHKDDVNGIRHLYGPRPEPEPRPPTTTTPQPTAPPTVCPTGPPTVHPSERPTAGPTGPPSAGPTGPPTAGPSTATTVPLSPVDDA

| Binder | binding result [2] | binding result [3] | binding result [4] | further results |
| --- | --- | --- | --- | --- |
| GPMFELLPGESNKIPRLRTD (peptide, UniProt P10124 54-73, looked up, serglycin core protein, spot 14 of the 20-mer walk with two-residue shift; numbers count on: the mature protein (1-131); source: synthetic peptide on a cellulose membrane) [SG peptide 14] | binds | binds | – | binding result [1]: binds |
| RSDGLPWCSTTANYDTDDRF (peptide, UniProt P14780 249-268, looked up, MMP-9 FnII module (A225-D390), spot 13 of the 20-mer walk with two-residue shift; source: synthetic peptide on a cellulose membrane) [FnII peptide 13] | – | – | binds | – |
| TRIQDLNRIFPLSEDYSGSG (peptide, UniProt P10124 78-97, looked up, serglycin core protein, spot 26 of the 20-mer walk with two-residue shift; numbers count on: the mature protein (1-131); source: synthetic peptide on a cellulose membrane) [SG peptide 26] | binds | binds | – | binding result [1]: binds |
| LDKLGLGADVAQVTGALRSG (peptide, UniProt P14780 601-620, looked up, MMP-9 HPX domain (F521-D707), spot 41 of the 20-mer walk with two-residue shift; source: synthetic peptide on a cellulose membrane) [HPX peptide 41] | – | – | binds | – |
| ADKWPALPRKLDSVFEERLS (peptide, UniProt P14780 557-576, looked up, MMP-9 HPX domain (F521-D707), spot 19 of the 20-mer walk with two-residue shift; source: synthetic peptide on a cellulose membrane) [HPX peptide 19] | – | – | binds | – |
| VRCNPDSNSANCLEEKGPMF (peptide, UniProt P10124 38-57, looked up, serglycin core protein, spot 6 of the 20-mer walk with two-residue shift; numbers count on: the mature protein (1-131); source: synthetic peptide on a cellulose membrane) [SG peptide 6] | binds | binds | – | binding result [1]: binds |
| THDVFQYREKAYFCQDRFYW (peptide, UniProt P14780 661-680, looked up, MMP-9 HPX domain (F521-D707), spot 71 of the 20-mer walk with two-residue shift; source: synthetic peptide on a cellulose membrane) [HPX peptide 71] | – | – | binds | – |
| LRTDLFPKTRIQDLNRIFPL (peptide, UniProt P10124 70-89, looked up, serglycin core protein, spot 22 of the 20-mer walk with two-residue shift; numbers count on: the mature protein (1-131); source: synthetic peptide on a cellulose membrane) [SG peptide 22] | binds | binds | – | binding result [1]: binds |
| MFELLPGESNKIPRLRTDLF (peptide, UniProt P10124 56-75, looked up, serglycin core protein, spot 15 of the 20-mer walk with two-residue shift; numbers count on: the mature protein (1-131); source: synthetic peptide on a cellulose membrane) [SG peptide 15] | binds | binds | – | binding result [1]: binds |
| RFSEGRGSRPQGPFLIADKW (peptide, UniProt P14780 541-560, looked up, MMP-9 HPX domain (F521-D707), spot 11 of the 20-mer walk with two-residue shift; source: synthetic peptide on a cellulose membrane) [HPX peptide 11] | – | – | binds | – |
| TDLFPKTRIQDLNRIFPLSE (peptide, UniProt P10124 72-91, looked up, serglycin core protein, spot 23 of the 20-mer walk with two-residue shift; numbers count on: the mature protein (1-131); source: synthetic peptide on a cellulose membrane) [SG peptide 23] | binds | binds | – | binding result [1]: binds |
| DGLPWCSTTANYDTDDRFGF (peptide, UniProt P14780 251-270, looked up, MMP-9 FnII module (A225-D390), spot 14 of the 20-mer walk with two-residue shift; source: synthetic peptide on a cellulose membrane) [FnII peptide 14] | – | – | binds | – |
| HDNLRSLDRNLPSDSQDLGQ (peptide, UniProt P10124 130-149, looked up, serglycin core protein, spot 52 of the 20-mer walk with two-residue shift; numbers count on: the mature protein (1-131); source: synthetic peptide on a cellulose membrane) [SG peptide 52] | – | – | – | binding result [5]: binds |
| SDAFHDNLRSLDRNLPSDSQ (peptide, UniProt P10124 126-145, looked up, serglycin core protein, spot 50 of the 20-mer walk with two-residue shift; numbers count on: the mature protein (1-131); source: synthetic peptide on a cellulose membrane) [SG peptide 50] | – | – | – | binding result [5]: binds |

Continued, in another order:

| binding result [2] | binding result [3] | binding result [4] | Binder | further results |
| --- | --- | --- | --- | --- |
| – | – | binds | RLWRFDVKAQMVDPRSASEV (peptide, UniProt P14780 631-650, looked up, MMP-9 HPX domain (F521-D707), spot 56 of the 20-mer walk with two-residue shift; source: synthetic peptide on a cellulose membrane) [HPX peptide 56] | – |
| binds | binds | – | PRLRTDLFPKTRIQDLNRIF (peptide, UniProt P10124 68-87, looked up, serglycin core protein, spot 21 of the 20-mer walk with two-residue shift; numbers count on: the mature protein (1-131); source: synthetic peptide on a cellulose membrane) [SG peptide 21] | – |
| – | – | binds | DTDDRFGFCPSERLYTQDGN (peptide, UniProt P14780 263-282, looked up, MMP-9 FnII module (A225-D390), spot 20 of the 20-mer walk with two-residue shift; source: synthetic peptide on a cellulose membrane) [FnII peptide 20] | – |
| – | – | binds | LNQVDQVGYVTYDILQCPED (peptide, UniProt P14780 688-707, looked up, MMP-9 HPX domain (F521-D707), last spot (85) of the 20-mer walk; source: synthetic peptide on a cellulose membrane) [HPX peptide 85] | – |
| – | – | binds | STTANYDTDDRFGFCPSERL (peptide, UniProt P14780 257-276, looked up, MMP-9 FnII module (A225-D390), spot 17 of the 20-mer walk with two-residue shift; source: synthetic peptide on a cellulose membrane) [FnII peptide 17] | – |
| – | – | binds | LPWCSTTANYDTDDRFGFCP (peptide, UniProt P14780 253-272, looked up, MMP-9 FnII module (A225-D390), spot 15 of the 20-mer walk with two-residue shift; source: synthetic peptide on a cellulose membrane) [FnII peptide 15] | – |
| – | – | binds | VPLDTHDVFQYREKAYFCQD (peptide, UniProt P14780 657-676, looked up, MMP-9 HPX domain (F521-D707), spot 69 of the 20-mer walk with two-residue shift; source: synthetic peptide on a cellulose membrane) [HPX peptide 69] | – |

From article PMC7352350, “Molecular Interactions Stabilizing the Promatrix Metalloprotease-9·Serglycin Heteromer” (International Journal of Molecular Sciences, 2020)
